The data set in a line: total protein half-life in vivo (active degradation + dilution); higher = more stable protein.
The mark [1] stands for this setting: E. coli NCM3722 delta-clpP, growth: N-lim chemostat, doubling time 6 h.
The mark [2] stands for this setting: E. coli NCM3722 delta-hslV, growth: N-lim chemostat, doubling time 6 h.
The mark [3] stands for this setting: E. coli NCM3722 delta-lon, growth: N-lim chemostat, doubling time 6 h.
The mark [4] stands for this setting: E. coli NCM3722 delta-smpB, growth: N-lim chemostat, doubling time 6 h.
The mark [5] stands for this setting: wild type E. coli NCM3722, growth: N-lim chemostat, doubling time 6 h.
Where [6] appears, read: E. coli NCM3722 delta-clpP delta-lon delta-hslV, growth: N-lim chemostat, doubling time 6 h.
The mark [7] stands for this setting: wild type E. coli NCM3722, growth: C-lim chemostat, doubling time 3 h.
[8] abbreviates: wild type E. coli NCM3722, growth: C-lim chemostat, doubling time 6 h.
The mark [9] stands for this setting: wild type E. coli NCM3722, growth: C-lim chemostat, doubling time 12 h.
Setting [10] is: wild type E. coli NCM3722, growth: N-lim chemostat, doubling time 12 h.
Setting [11] is: wild type E. coli NCM3722, growth: P-lim chemostat, doubling time 6 h.
Where [12] appears, read: wild type E. coli NCM3722, growth: P-lim chemostat, doubling time 12 h.

± gives the standard deviation of the averaged measurements.

Consider “MNEAVSPGALSTLFTDARTHNGWRETPVSDETLREIYALMKWGPTSANCSPARIVFTRTAEGKERLRPALSSGNLQKTLTAPVTAIVAWDSEFYERLPLLFPHGDARSWFTSSPQLAEETAFRNSSMQAAYLIVACRALGLDTGPMSGFDRQHVDDAFFTGSTLKSNLLINIGYGDSSKLYARLPRLSFEEACGLL”, for which the “total protein half-life in vivo” value reads like this: under setting [1], 1.43 h; under setting [2], 0.257 ± 0.15 h; under setting [3], 0.612 ± 0.095 h; under setting [4], 0.402 h; under setting [5], 0.94 ± 0.6 h.

Take “MYLYIETLKQRLDAINQLRVDRALAAMGPAFQQVYSLLPTLLHYHHPLMPGYLDGNVPKGICLYTPDETQRHYLNELELYRGMSVQDPPKGELPITGVYTMGSTSSVGQSCSSDLDIWVCHQSWLDSEERQLLQRKCSLLENWAASLGVEVSFFLIDENRFRHNESGSLGGEDCGSTQHILLLDEFYRTAVRLAGKRILWNMVPCDEEEHYDDYVMTLYAQGVLTPNEWLDLGGLSSLSAEEYFGASLWQLYKSIDSPYKAVLKTLLLEAYSWEYPNPRLLAKDIKQRLHDGEIVSFGLDPYCMMLERVTEYLTAIEDFTRLDLVRRCFYLKVCEKLSRERACVGWRRAVLSQLVSEWGWDEARLAMLDNRANWKIDQVREAHNELLDAMMQSYRNLIRFARRNNLSVSASPQDIGVLTRKLYAAFEALPGKVTLVNPQISPDLSEPNLTFIYVPPGRANRSGWYLYNRAPNIESIISHQPLEYNRYLNKLVAWAWFNGLLTSRTRLYIKGNGIVDLPKLQEMVADVSHHFPLRLPAPTPKALYSPCEIRHLAIIVNLEYDPTAAFRNQVVHFDFRKLDVFSFGENQNCLVGSVDLLYRNSWNEVRTLHFNGEQSMIEALKTILGKMHQDAAPPDSVEVFCYSQHLRGLIRTRVQQLVSECIELRLSSTRQETGRFKALRVSGQTWGLFFERLNVSVQKLENAIEFYGAISHNKLHGLSVQVETNHVKLPAVVDGFASEGIIQFFFEETQDENGFNIYILDESNRVEVYHHCEGSKEELVRDVSRFYSSSHDRFTYGSSFINFNLPQFYQIVKVDGREQVIPFRTKSIGNMPPANQDHDTPLLQQYFS”: the “total protein half-life in vivo” value under setting [6] stood at 4.23 ± 0.18 h; the “total protein half-life in vivo” value under setting [1] was determined as 3.635 ± 0.028 h; the “total protein half-life in vivo” value under setting [2] came to 1.14 ± 0.25 h; the “total protein half-life in vivo” value under setting [3] was 1.04 ± 0.087 h; the “total protein half-life in vivo” value under setting [4] turned out to be 1.36 ± 0.081 h; the “total protein half-life in vivo” value under setting [7] amounted to 0.845 ± 0.015 h. Further, the “total protein half-life in vivo” value under setting [8] amounted to 1.19 h; the “total protein half-life in vivo” value under setting [9] turned out to be 1.66 ± 0.22 h; the “total protein half-life in vivo” value under setting [5] was 1.27 ± 0.07 h; the “total protein half-life in vivo” value under setting [10] turned out to be 1.72 ± 0.053 h; the “total protein half-life in vivo” value under setting [11] is 2.155 ± 0.0068 h; the “total protein half-life in vivo” value under setting [12] stood at 3.73 ± 0.4 h.

On to “MDDLTAQALKDFTARYCDAWHEEHKSWPLSEELYGVPSPCIISTTEDAVYWQPQPFTGEQNVNAVERAFDIVIQPTIHTFYTTQFAGDMHAQFGDIKLTLLQTWSEDDFRRVQENLIGHLVTQKRLKLPPTLFIATLEEELEVISVCNLSGEVCKETLGTRKRTHLASNLAEFLNQLKPLL [P0A8U0]”, for which the “total protein half-life in vivo” value by setting is: under setting [6], 4.63 ± 0.19 h; under setting [2], 3.71 ± 0.25 h; under setting [3], 5.62 ± 1.2 h; under setting [4], 4.15 ± 0.19 h; under setting [7], > 4 h; under setting [8], 4.21 ± 1.8 h. The “total protein half-life in vivo” value is, setting by setting: under setting [9], 9.71 h; under setting [5], 3.72 h; under setting [10], 7.43 ± 1.4 h; under setting [11], 5.7 ± 0.28 h; under setting [12], 12.7 ± 2.7 h.

“MNDRDFMRYSRQILLDDIALDGQQKLLDSQVLIIGLGGLGTPAALYLAGAGVGTLVLADDDDVHLSNLQRQILFTTEDIDRPKSQVSQQRLTQLNPDIQLTALQQRLTGEALKDAVARADVVLDCTDNMATRQEINAACVALNTPLITASAVGFGGQLMVLTPPWEQGCYRCLWPDNQEPERNCRTAGVVGPVVGVMGTLQALEAIKLLSGIETPAGELRLFDGKSSQWRSLALRRASGCPVCGGSNADPV”: the “total protein half-life in vivo” value by setting is: under setting [6], 4.92 ± 0.58 h; under setting [1], 3.65 ± 0.013 h; under setting [2], 3.8 ± 0.15 h; under setting [3], 5.12 ± 0.89 h; under setting [4], 2.97 ± 0.83 h; under setting [7], 2.37 ± 0.41 h. Besides, the “total protein half-life in vivo” value under setting [8] is 4.03 ± 0.18 h; the “total protein half-life in vivo” value under setting [9] was 8.83 ± 2.4 h; the “total protein half-life in vivo” value under setting [5] turned out to be 3.24 ± 0.079 h; the “total protein half-life in vivo” value under setting [10] turned out to be 8.28 ± 6.9 h; the “total protein half-life in vivo” value under setting [11] was 4.26 ± 0.46 h; the “total protein half-life in vivo” value under setting [12] was 7.08 ± 0.84 h.

In the case of “MMDLDNIPDTQTEAEELEEVVMGLIINSGQARSLAYAALKQAKQGDFAAAKAMMDQSRMALNEAHLVQTKLIEGDAGEGKMKVSLVLVHAQDHLMTSMLARELITELIELHEKLKA”, the “total protein half-life in vivo” value under setting [6] was determined as 4.73 h; the “total protein half-life in vivo” value under setting [1] was 2.85 ± 0.031 h; the “total protein half-life in vivo” value under setting [7] turned out to be 1.44 h; the “total protein half-life in vivo” value under setting [8] turned out to be 1.82 ± 0.14 h; the “total protein half-life in vivo” value under setting [9] stood at 2.66 h.

For the sequence “MRGKKRIGLLFLLIAVVVGGGGLLLAQKVLHKTSDTAFCLSCHSMSKPFEEYQGTVHFSNQKGIRAECADCHIPKSGMDYLFAKLKASKDIYHEFVSGKIDSDDKFEAHRQEMAETVWKELKATDSATCRSCHSFDAMDIASQSESAQKMHNKAQKDSETCIDCHKGIAHFPPEIKMDDNAAHELESQAATSVTNGAHIYPFKTSHIGELATVNPGTDLTVVDASGKQPIVLLQGYQMQGSENTLYLAAGQRLALATLSEEGIKALTVNGEWQADEYGNQWRQASLQGALTDPALADRKPLWQYAEKLDDTYCAGCHAPIAADHYTVNAWPSIAKGMGARTSMSENELDILTRYFQYNAKDITEKQ”, the “total protein half-life in vivo” value under setting [7] came to 2.33 h, the “total protein half-life in vivo” value under setting [8] stood at 4.09 h and the “total protein half-life in vivo” value under setting [9] was found to be 8.13 ± 1.1 h.

Consider “MPLRRFSPGLKAQFAFGMVFLFVQPDASAADISAQQIGGVIIPQAFSQALQDGMSVPLYIHLAGSQGRQDDQRIGSAFIWLDDGQLRIRKIQLEESEDNASVSEQTRQQLMALANAPFNEALTIPLTDNAQLDLSLRQLLLQLVVKREALGTVLRSRSEDIGQSSVNTLSSNLSYNLGVYNNQLRNGGSNTSSYLSLNNVTALREHHVVLDGSLYGIGSGQQDSELYKAMYERDFAGHRFAGGMLDTWNLQSLGPMTAISAGKIYGLSWGNQASSTIFDSSQSATPVIAFLPAAGEVHLTRDGRLLSVQNFTMGNHEVDTRGLPYGIYDVEVEVIVNGRVISKRTQRVNKLFSRGRGVGAPLAWQVWGGSFHMDRWSENGKKTRPAKESWLAGASTSGSLSTLSWAATGYGYDNQAVGETRLTLPLGGAINVNLQNMLASDSSWSSIGSISATLPGGFSSLWVNQEKTRIGNQLRRSDADNRAIGGTLNLNSLWSKLGTFSISYNDDRRYNSHYYTADYYQNVYSGTFGSLGLRAGIQRYNNGDSNANTGKYIALDLSLPLGNWFSAGMTHQNGYTMANLSARKQFDEGTIRTVGANLSRAISGDTGDDKTLSGGAYAQFDARYASGTLNVNSAADGYVNTNLTANGSVGWQGKNIAASGRTDGNAGVIFNTGLEDDGQISAKINGRIFPLNGKRNYLPLSPYGRYEVELQNSKNSLDSYDIVSGRKSRLTLYPGNVAVIEPEVKQMVTVSGRIRAEDGTLLANARINNHIGRTRTDENGEFVMDVDKKYPTIDFRYSGNKTCEVALELNQARGAVWVGDVVCSGLSSWAAVTQTGEENES”, for which, under setting [7], the “total protein half-life in vivo” value came out at 2.91 h.

For the sequence “MKRFSLAILALVVATGAQAASEKVEMNLVTSQGVGQSIGSVTITETDKGLEFSPDLKALPPGEHGFHIHAKGSCQPATKDGKASAAESAGGHLDPQNTGKHEGPEGAGHLGDLPALVVNNDGKATDAVIAPRLKSLDEIKDKALMVHVGGDNMSDQPKPLGGGGERYACGVIK [P0AGD1]”, the “total protein half-life in vivo” value under setting [6] was 5.72 ± 1.6 h; the “total protein half-life in vivo” value under setting [1] turned out to be 6.84 ± 0.29 h; the “total protein half-life in vivo” value under setting [2] was 6.36 ± 0.53 h; the “total protein half-life in vivo” value under setting [3] stood at 6.86 ± 0.16 h; the “total protein half-life in vivo” value under setting [4] was determined as 5.11 ± 0.17 h; the “total protein half-life in vivo” value under setting [7] was 2.81 ± 0.45 h. Further, the “total protein half-life in vivo” value runs as follows: under setting [8], 6.27 ± 0.81 h; under setting [9], 10 ± 1.8 h; under setting [5], 6.57 ± 0.63 h; under setting [10], 11.8 ± 1.3 h; under setting [11], 5.69 ± 0.66 h; under setting [12], 11 ± 0.99 h.

Source of the values: the supplement of paper PMC11246515.
